Experimental data reported in patent US20100009923A1.

Biological target: … (MimA2) presented by H-2D^b on peptide-pulsed RMA-S cells (mouse) (UniProt P01899)
Test: cell-based or functional assay

Chain of … (MimA2) presented by H-2D^b on peptide-pulsed RMA-S cells (mouse) (P01899 25-362): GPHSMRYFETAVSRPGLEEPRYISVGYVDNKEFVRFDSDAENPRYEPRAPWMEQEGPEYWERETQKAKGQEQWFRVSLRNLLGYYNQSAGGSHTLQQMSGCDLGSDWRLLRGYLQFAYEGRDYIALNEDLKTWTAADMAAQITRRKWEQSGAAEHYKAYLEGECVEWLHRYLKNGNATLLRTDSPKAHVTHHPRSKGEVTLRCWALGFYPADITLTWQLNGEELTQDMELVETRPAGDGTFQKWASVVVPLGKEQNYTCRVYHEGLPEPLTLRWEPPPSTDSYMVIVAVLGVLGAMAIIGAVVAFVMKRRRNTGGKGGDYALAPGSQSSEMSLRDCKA

TCR of the β cell-autoreactive CD8+ T cell clone AI4 (Vα8/Vβ2)
peptide concentration giving half-maximal activity in the AI4 cytotoxicity assay (51Cr release, E:T 40, RMA-S targets): 10 pM
